Laboratory results reported in PMC2132940.

Tests used:
Experiment in all cases: co-IP
CD7BB1 (human | canine) [1] = molecular target: CD7BB1 (human | canine) (UniProt P09564)
CD7BB1 (human | canine) [2] = molecular target: CD7BB1 (human | canine) (UniProt P09564); remark: listed apart in the source
GP2CAD1 (rat | canine) = molecular target: GP2CAD1 (rat | canine)

UniProt P09564, sequence (P09564 whole entry): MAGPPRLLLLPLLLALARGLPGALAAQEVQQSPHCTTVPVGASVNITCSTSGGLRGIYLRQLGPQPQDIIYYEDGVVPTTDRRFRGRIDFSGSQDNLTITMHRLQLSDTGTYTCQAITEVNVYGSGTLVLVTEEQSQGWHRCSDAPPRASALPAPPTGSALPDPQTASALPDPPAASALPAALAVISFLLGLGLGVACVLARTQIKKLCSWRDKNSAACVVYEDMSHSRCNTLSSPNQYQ

stoichiometry N (α-catenin per 5 CD7BB1) (CD7BB1 (human | canine) [1])	stoichiometry N (β-catenin per 5 CD7BB1) (CD7BB1 (human | canine) [2])	stoichiometry N (β-catenin per GP2CAD1) (GP2CAD1 (rat | canine))	Molecule
0.8	–	–	α-catenin (natural protein)
–	1	1	β-catenin (natural protein) MATQADLMELDMAMEPDRKAAVSHWQQQSYLDSGIHSGATTTAPSLSGKGNPEEEDVDTTQVLYEWEQGFSQSFTQEQVADIDGQYAMTRAQRVRAAMFPETLDEGMQIPSTQFDAAHPTNVQRLAEPSQMLKHAVVNLINYQDDAELATRAIPELTKLLNDEDQVVVNKAAVMVHQLSKKEASRHAIMRSPQMVSAIVRTMQNTNDVETARCTAGTLHNLSHHREGLLAIFKSGGIPALVKMLGSPVDSVLFYAITTLHNLLLHQEGAKMAVRLAGGLQKMVALLNKTNVKFLAITTDCLQILAYGNQESKLIILASGGPQALVNIMRTYTYEKLLWTTSRVLKVLSVCSSNKPAIVEAGGMQALGLHLTDPSQRLVQNCLWTLRNLSDAATKQEGMEGLLGTLVQLLGSDDINVVTCAAGILSNLTCNNYKNKMMVCQVGGIEALVRTVLRAGDREDITEPAICALRHLTSRHQEAEMAQNAVRLHYGLPVVVKLLHPPSHWPLIKATVGLIRNLALCPANHAPLREQGAIPRLVQLLVRAHQDTQRRTSMGGTQQQFVEGVRMEEIVEGCTGALHILARDVHNRIVIRGLNTIPLFVQLLYSPIENIQRVAAGVLCELAQDKEAAEAIEAEGATAPLTELLHSRNEGVATYAAAVLFRMSEDKPQDYKKRLSVELTSSLFRTEPMAWNETADLGLDIGAQGEPLGYRQDDPSYRSFHSGGYGQDALGMDPMMEHEMGGHHPGADYPVDGLPDLGHAQDLMDGLPPGDSNQLAWFDTDL
